Test results published in paper PMC5916938.
“And” between values parts separate entries of the source, which are not always exact repeats. Identical values can stand only once.

Biological target: porcine brain tubulin (alpha/beta heterodimer), as paclitaxel-stabilised microtubule lattice (straight tubulin) or as curved tubulin protofilaments (porcine) (UniProt P02550)
Assay: cryo-EM 2D class averages; CTNM AMP-PNP: 15 uM KLP10A NM with 3 uM polymerized tubulin in BRB80, 5 mM AMPPNP, 5 mM MgCl2, 20 uM paclitaxel, 5 min at room temperature; ring-like curved tubulin complexes not wrapped around microtubules, aligned and classified in 2D
Details: scale: KLP10A motor domain per tubulin heterodimer

Sequence of UniProt P02550 (P02550 whole entry, chain 1 of 2): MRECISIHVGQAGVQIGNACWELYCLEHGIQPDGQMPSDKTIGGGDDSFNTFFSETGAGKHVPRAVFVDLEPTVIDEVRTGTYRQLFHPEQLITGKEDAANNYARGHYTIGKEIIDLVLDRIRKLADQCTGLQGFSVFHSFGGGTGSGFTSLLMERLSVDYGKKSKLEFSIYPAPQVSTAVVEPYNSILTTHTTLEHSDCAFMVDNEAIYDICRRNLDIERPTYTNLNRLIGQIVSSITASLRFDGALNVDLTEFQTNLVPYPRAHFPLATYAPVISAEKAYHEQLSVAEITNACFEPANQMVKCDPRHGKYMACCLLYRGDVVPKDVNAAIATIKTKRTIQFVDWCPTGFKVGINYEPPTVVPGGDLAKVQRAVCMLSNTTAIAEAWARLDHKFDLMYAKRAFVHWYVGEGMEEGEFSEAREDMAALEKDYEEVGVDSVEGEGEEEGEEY
Sequence of UniProt P02550 (P02554 1-439, chain 2 of 2, further chain): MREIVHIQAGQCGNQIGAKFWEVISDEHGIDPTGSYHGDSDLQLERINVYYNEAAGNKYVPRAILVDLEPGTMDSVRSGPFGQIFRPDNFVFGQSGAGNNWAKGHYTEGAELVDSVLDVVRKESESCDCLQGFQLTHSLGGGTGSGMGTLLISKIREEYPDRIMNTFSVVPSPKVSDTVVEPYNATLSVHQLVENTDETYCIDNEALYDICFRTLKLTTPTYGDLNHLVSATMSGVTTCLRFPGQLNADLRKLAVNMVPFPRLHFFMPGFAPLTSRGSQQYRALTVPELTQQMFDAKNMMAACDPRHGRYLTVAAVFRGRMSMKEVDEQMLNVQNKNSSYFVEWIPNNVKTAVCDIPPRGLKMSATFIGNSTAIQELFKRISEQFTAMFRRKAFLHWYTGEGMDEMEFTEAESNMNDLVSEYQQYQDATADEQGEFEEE

## Drosophila melanogaster kinesin-13 KLP10A neck motor construct (NM), residues 198-615 (from UniProt Q960Z0 198-615) (domain or fragment)
  stoichiometry N: 1 and 0.5
